Here are results for two molecules from patent US20160230173A1.

In data set [1] the target is Doubly mutated GR (double mutagenized GR, both CASP1 cleavage sites LLID and IKQE replaced by alanines), expressed from pLX304 lentivirus (human) (UniProt P04150). Kind of data set: cell-based or functional assay.
In data set [2] the target is Endogenous glucocorticoid receptor (90-kDa GR) of NALM-6 human leukemia cells (human) (UniProt P04150). Kind of data set: cell-based or functional assay.
The target in data set [3] is T1, Glucocorticoid receptor (NR3C1) with the LLID motif mutated to AAAA by site-directed mutagenesis of Myc-DDK tagged NR3C1.
T1 chain: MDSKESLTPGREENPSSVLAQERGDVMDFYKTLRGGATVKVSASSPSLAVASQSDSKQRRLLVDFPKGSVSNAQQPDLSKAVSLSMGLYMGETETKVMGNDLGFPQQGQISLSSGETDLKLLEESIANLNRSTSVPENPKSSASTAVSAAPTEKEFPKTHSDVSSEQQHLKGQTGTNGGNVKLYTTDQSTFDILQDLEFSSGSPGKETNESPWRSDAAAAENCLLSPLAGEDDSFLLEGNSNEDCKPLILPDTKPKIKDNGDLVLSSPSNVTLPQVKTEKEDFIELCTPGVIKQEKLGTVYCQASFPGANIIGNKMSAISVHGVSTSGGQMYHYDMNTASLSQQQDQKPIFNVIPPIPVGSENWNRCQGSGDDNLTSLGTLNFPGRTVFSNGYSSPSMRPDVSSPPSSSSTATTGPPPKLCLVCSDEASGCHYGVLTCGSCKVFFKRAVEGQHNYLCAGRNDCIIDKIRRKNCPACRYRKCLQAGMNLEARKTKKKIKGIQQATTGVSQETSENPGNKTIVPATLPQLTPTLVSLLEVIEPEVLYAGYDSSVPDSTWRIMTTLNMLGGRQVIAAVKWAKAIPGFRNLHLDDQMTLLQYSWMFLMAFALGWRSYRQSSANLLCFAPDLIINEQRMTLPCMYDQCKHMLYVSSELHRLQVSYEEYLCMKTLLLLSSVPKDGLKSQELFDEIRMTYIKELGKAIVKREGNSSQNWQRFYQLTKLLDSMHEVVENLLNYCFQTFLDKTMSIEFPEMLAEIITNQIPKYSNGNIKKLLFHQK

On to “Full-length CASP1 (Origene catalog # RC218364; GenBank Accession No. NM_033292) overexpressed in Nalm6 leukemia cells by lentivirus (from UniProt P29466 1-404) (enzyme)”, for which, in data set [1], the fold decrease in prednisolone LC50 (MTT assay) in CASP1-overexpressing NALM-6 cells expressing GR without CASP1 cleavage sites came out at 9.4 fold. Besides, in data set [2], the GR protein level in CASP1-overexpressing Nalm6 cells 24 hours after activation of CASP1 (western blot) is 35 % reduction and the level of 90-kDa GR after activation of CASP1 (LPS/ATP) in shNT CASP1-overexpressing NALM-6 cells (western blot, normalized for HSP90) worked out at 2 fold lower.

B1: Recombinant human CASP1 (Enzo Life Sciences CASP1 assay kit for drug discovery, catalog number BML-AK701-0001) (protein)
chain: NPAMPTSSGSEGNVKLCSLEEAQRIWKQKSAEIYPIMDKSSRTRLALIICNEEFDSIPRRTGAEVDITGMTMLLQNLGYSVDVKKNLTASDMTTELEAFAHRPEHKTSDSTFLVFMSHGIREGICGKKHSEQVPDILQLNAIFNMLNTKNCPSLKDKPKVIIIQACRGDSPGVVWFKDSVGVSGNLSLPTTEEFEDDAIKKAHIEKDFIAFCSSTPDNVSWRHPTMGSVFIGRLIEHMQEYACSCDVEEIFRKVRFSFEQPDGRAQMPTTERVTLTRCFYLFPGH
B1: the “cleavage of mutated GR in CASP1 enzymatic assay (western blot)” value in data set [3] is “Site-directed mutagenesis of the LLID motif (SEQ ID NO: 20) ablated cleavage of the glucocorticoid receptor at this location (FIG. 3B) and revealed a secondary CASP1 cleavage site in the GR”.
